Positions count from the first letter of the chain named. Names may count otherwise.
B1: 2L-1 (S31N+A91S) (antibody, V domains shown)
VH: EVQLVQSGAEVKKPGASVKVSCKASGYTFTSGHTFPSYDINWVRQATGQGLEWMGWMNPNRGNTGYAQKFQGRVTMTRNTSINTAYMELSSLRSEDTAVYYCARVRSGTNYGSYYYYYYGMDVWGQGTTVTVSS
VL: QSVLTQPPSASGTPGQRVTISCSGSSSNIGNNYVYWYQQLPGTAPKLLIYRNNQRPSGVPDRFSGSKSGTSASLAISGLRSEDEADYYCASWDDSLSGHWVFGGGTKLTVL
notes: also called double mutation (S31N+A91S) into 2L-1; source: HEK 293T, transiently co-transfected, purified from supernatant (protein A agarose)
B2: 2H-6 (antibody, V domains shown)
VH: EVQLVQSGAEVKKPGASVKVSCKASGYTFTSYDVNWVRQATGQGLEWMGWLNPNSGNTGYAEKFQGRVTMTRNTSISTAYMELSSLRSEDTAVYYCARVSSGSYYGSYYYYYYGMDVWGQGTTVTVSS
VL: SYELTQPPSASGTPGQRVTISCSGSSSNIGNNYVHWYQQLPGSAPKLLIYRNNQRPSGVPDRFSGSKSGTSGSLAISGLRSEDEADYYCASWDDSLSGHWVFGGGTKVTVL
notes: also called ZK2B10 heavy chain somatic variant 2H-6; source: HEK 293T, transiently co-transfected, purified from supernatant (protein A agarose)
B3: 2H-9 (antibody, V domains shown)
VH: B2 VH with A9G, E10K, K12V, K13E, P14L, S31T, V34I, L51M, E62Q
VL: B2 VL
notes: also called ZK2B10 heavy chain somatic variant 2H-9; source: HEK 293T, transiently co-transfected, purified from supernatant (protein A agarose)
B4: 2H-5 (antibody, V domains shown)
VH: B2 VH with E1Q, K19N, S31M, V34I, A40T, L51M, E62Q
VL: B2 VL
notes: also called ZK2B10 heavy chain somatic variant 2H-5; source: HEK 293T, transiently co-transfected, purified from supernatant (protein A agarose)
B5: 2H-16 (antibody, V domains shown)
VH: B2 VH with E1Q, V34I, L51M, Y60C, E62Q
VL: B2 VL
notes: also called ZK2B10 heavy chain somatic variant 2H-16; source: HEK 293T, transiently co-transfected, purified from supernatant (protein A agarose)
B6: 2H-10 (antibody, V domains shown)
VH: B2 VH with E1Q, A9V, K19E, K23Q, Y27I, F29S, V34I, T41N, L51M, E62Q
VL: B2 VL
notes: also called ZK2B10 heavy chain somatic variant 2H-10; source: HEK 293T, transiently co-transfected, purified from supernatant (protein A agarose)
B7: 2H-15 (antibody, V domains shown)
VH: B2 VH with L51M, E62Q
VL: B2 VL
notes: also called ZK2B10 heavy chain somatic variant 2H-15; source: HEK 293T, transiently co-transfected, purified from supernatant (protein A agarose)
B8: 2H-4 (antibody, V domains shown)
VH: B2 VH with E1Q, A9R, A24G, V34I, T41P, L51M, E62Q, E89G
VL: B2 VL
notes: also called ZK2B10 heavy chain somatic variant 2H-4; source: HEK 293T, transiently co-transfected, purified from supernatant (protein A agarose)
B9: ZK2B10 (antibody, V domains shown)
VH: B1 VH
VL: B2 VL
notes: also called WT ZK2B10; wild-type (WT) ZK2B10; source: HEK 293T, transiently co-transfected, purified from supernatant (protein A agarose)

What follows are binders tested against T1, ZIKV E protein (GZ01) (Zika virus, isolate GZ01 (KU820898)) (assay: ELISA; E protein or E DIII protein captured separately onto ELISA plates overnight at 4°C; each mAb (full-length IgG) serially diluted and applied; detected with anti-human IgG-HRP and TMB; EC50 by dose-response stimulation model). Conditions: both partners purified.
T1 construct: also called full-length E; surface envelope glycoprotein (E); source: E. coli BL21 (RIL), pET28a, IPTG-induced; inclusion bodies solubilized and re-folded
B1: binds.
B2: binds.
B3: binds.
B4: binds.
B5: binds.
B6: binds.
B7: binds.
B8: binds.

What follows are binders tested against T2, ZIKV E DIII protein (residues 301-403) (Zika virus, isolate GZ01 (KU820898)) in the same assay as above. Conditions: both partners purified.
T2 construct: source: E. coli BL21 (RIL), pET28a, IPTG-induced; inclusion bodies solubilized and re-folded
B1: binds.
B2: binds.
B3: binds.
B4: binds.
B9: binds.
B5: binds.
B6: binds.
B7: binds.
B8: binds.

Source: article PMC6821881, “Development of a Potent and Protective Germline-Like Antibody Lineage Against Zika Virus in a Convalescent Human” (Frontiers in Immunology, 2019)
